Literature values in patent US20060166927A1, “Compounds that bind to the interferon-gamma, preparation method thereof and medicaments containing same” (priority 2002, published 2006).

B1: γ-IFN: polypeptide comprising, for example, 143 amino acids in humans, which is part of the cytokine family (protein, UniProt P01579 24-161, looked up)
Interferon gamma: QDPYVKEAENLKKYFNAGHSDVADNGTLFLGILKNWKEESDRKIMQSQIVSFYFKLFKNFKDDQSIQKSVETIKEDMNVKFFNSNKKKRDDFEKLTNYSVTDLNVQRKAIHELIQVMAELSPAAKTGKRKRSQMLFRG
proportion of injected γ-IFN rapidly bound by molecules of heparin/heparan sulphate type (at the surface of the vascular endothelium): approximately 90% | cytokine disappearing from the circulating blood (intravenous injection, during the first 5 to 10 minutes): 90% | half-life time (intravenous injection, first phase of biexponential elimination): ~1 min | inactivation in vivo (γ-IFN alone): rapidly inactivated by proteolytic degradation of its C-terminal end
